Experimental findings from publication doi:10.1101/560391 (bioRxiv, 2019) are described below.

The target of series [1] is dCENP-A^C chimera, GFP-LacI fusion (Drosophila) (UniProt Q9V6Q2). Put plainly: LacI/LacO tethering and co-recruitment in cells.
For series [2], the target named is (dCENP-A/dH4) dimer (Drosophila), Q9V6Q2. Put plainly: SEC-MALS. The conditions noted are these: remark: other sources report otherwise. For orientation: In gel filtration, larger molecules generally elute earlier.
Series [3] concerns the molecule itself. The series can be described thus: SEC-MALS.

For the molecule “CAL1-V5 (from UniProt Q9VEN2 1-979) (natural protein)”, in series [1], the CAL1 recruitment relative to WT dCENP-A was 60%.

B1: recombinant CAL1(1-160), Q9VEN2 1-160 (domain or fragment)
chain: MANAVVDEETLEAMVYERSKAWSSKMADFASLEDGMEIDVAEFDNLFHGEDEDPDLDDVAKEAVEDNVPDEAKLEMGHINATSVTELTLILCANEDNEAKAEIEEILNQTVPVVEEHKRKWREAGLDRILDTFDEKQIEHHVGRWMRRHNSVYLEASPPK
In series [2], B1 yielded a stoichiometry N of 1.

B2: His-dCENP-C(1264-1411) (domain or fragment)
chain: GPVVFSTPLRDEQEEASTKLMQWLRGVGDAPPSASMSDENASVSSANELIFCQVDGIDYAFYNTKEKAMLGYMRFKPYQKRSMKQAKVHPLKLLVQFGEFNVETLAVGEEKEVHSVLRVGDMIEIDRGTRYSIQNAIDKVSVLMCIRS
As to B2, the “stoichiometry N” value in series [3] came out at 2.

Usually stoichiometry N stands for the number of molecules, sites or subunits per partner or assembly.
